Substitutions are numbered along the chain they refer to. One block for each binder: values may come before it. Where no end group is shown, it is not given here. The star is where a group is joined. Biotin = O=C1N[C@H]2[C@H](CS[C@H]2CCCCC(=O)*)N1
Key:
full length human PAR-2 [1] = target: T1, full length human PAR-2 (human, UniProt P55085 26-397); experiment: MSD cell binding
T1 construct: overexpressed on HEK293-derived 293/D9 cells; also called 293/D9/hPAR-2rec cells
Method: HEK293 cells were transfected with an NF-κB-luciferase-IRES-eGFP reporter plasmid. […] A clonal cell line, named D9, having low background levels of luciferase activity and high levels of eGFP when induced with IL-1β was made by a series of successive sorts of cell populations using flow cytometry. The 293/D9 cell line was then separately transfected with human PAR-2 or mouse PAR-2 to create the stable cell lines 293/D9/h PAR-2rec and 293/D9/m PAR-2rec, respectively.
Cells were plated on MSD high-bind 96 well plates at a density of 4×10⁴ cells/well in PBS and incubated for one hour at room temperature. Cells were then blocked in PBS with 2% BSA and incubated at room temperature for one hour. Anti-PAR-2 antibodies (ranging from 100 nM to 0.098 nM) were serially diluted two-fold in PBS with 0.5% BSA and incubated with the cells for one hour at room temperature followed by washing in PBS with 0.5% BSA. Sulfo-tagged anti-human IgG antibody (MSD) at a concentration of 0.1 μg/ml was then added to the cell/antibody mixture and incubated at room temperature for an additional hour. After another wash, a 1× non-surfactant containing read buffer was added and electro-chemiluminescent signal was read on the MSD Sector Imager. Signal of antibody binding to 293/D9 cells was subtracted from signal to 293/D9/hPAR-2rec or 293/D9/mPAR-2rec cells. Subtracted data were analyzed using a sigmoidal dose-response model in GraphPad Prism and EC₅₀ and Bₘₐₓ values were reported (Table 18). EC₅₀ values are defined as the antibody concentration required to achieve 50% maximal binding (Bₘₐₓ) to cells.

[2] = target: T2, Peptide A (human PAR-2), unbiotinylated (Human); experiment: SPR, antibody captured
T2 construct: also called Peptide A No Biotin
T2 peptide: GTNRSSKGRSLIGKVDGT
Method: (§1) Equilibrium dissociation constants (KD values) for antigen binding to selected purified PAR-2 antibodies were determined by surface kinetics using a real-time surface plasmon resonance biosensor assay. Antibody was captured on either a rabbit anti-mouse IgG polyclonal antibody (GE Healthcare, Piscataway, N.J.) surface or a goat anti-human IgG polyclonal antibody (Jackson Immuno Research Lab, West Grove, Pa.) surface created through direct amine chemical coupling to a BIACORE™ CM5 sensor chip to form a captured antibody surface. […] Antigen-antibody binding and dissociation were monitored in real time at room temperature. Kinetic analysis was performed to calculate KD and half-life of antigen/antibody complex dissociation (Table 10). For those antibodies where no T_{1/2} value is shown, steady state analysis was used to calculate the KD value. NB: no binding observed under current experimental conditions. ND: not determined.

[3] = target: T3, Peptide F (monkey PAR-2), N-terminal biotinylated (Monkey (Macaca mulatta), N-terminal biotin via G4S linker); experiment: SPR, antibody captured
T3 construct: also called Peptide F N-Term
T3 sequence (peptide, as listed by the source): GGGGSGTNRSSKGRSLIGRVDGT
Method: as §1

full length human PAR-2 [4] = target: T1, full length human PAR-2; experiment: cell-based or functional assay
[5] = target: T2, Peptide A (human PAR-2), unbiotinylated; experiment: peptide ELISA titration
Method: (§2) Anti-PAR-2 antibodies were tested for their ability to bind to the PAR-2 peptides. Various PAR-2 Peptides (Table 3) were coated onto 96-well plates at a concentration of 2 μg/ml and incubated overnight followed by blocking in a suitable blocking agent for one hour. […] Purified anti-PAR-2 antibodies were added to the plate coated with PAR-2 peptides to a final concentration ranging from 0.2 to 2.0 μg/ml and incubated for one hour at room temperature. Detection of bound antibodies was determined with Horse-Radish Peroxidase (HRP) conjugated anti-mouse or human IgG (Jackson Immuno Research Lab, West Grove, Pa.) and developed by standard colorimetric response using tetramethylbenzidine (TMB) substrate. Absorbance was read at OD₄₅₀ for 0.1 second.
(§3) In another experiment, selected anti-PAR-2 antibodies cloned onto human IgG4 were tested for binding to unbiotinylated and biotinylated forms of PAR-2 peptides (Peptides A, E, F and G; as described above). […] Absorbance values at 450 nm were analyzed using a sigmoidal dose-response model in GraphPad Prism (GraphPad Software, Inc., La Jolla, Calif.) and EC₅₀ values were reported (Table 9). EC₅₀ values are defined as the antibody concentration required to achieve 50% maximal binding to PAR-2 peptide.

[6] = target: T4, Peptide A (human PAR-2), N-terminal biotinylated (Human, N-terminal biotin via G4S linker); experiment: peptide ELISA titration
T4 construct: also called Peptide A N-Term
T4 peptide: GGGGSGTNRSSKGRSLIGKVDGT
Method: as §2, §3

[7] = target: T5, Peptide A (human PAR-2), C-terminal biotinylated (Human, C-terminal biotin via G4S linker); experiment: peptide ELISA titration
T5 construct: also called Peptide A C-Term
Method: as §2, §3

[8] = target: T3, Peptide F (monkey PAR-2), N-terminal …; experiment: peptide ELISA titration
Method: as §2, §3

[9] = target: T5, Peptide A (human PAR-2), C-terminal …; experiment: SPR, peptide immobilized
Procedure, shortened: (§4)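 Neutravidin was amine-coupled to a C1 or CM5 chip, and N- or C-terminal biotinylated peptide was captured at low density (<1RU). Purified antibody at 5–100 μg/ml was injected at 50 μl/min for 300 s, with binding and dissociation monitored in real time at 25° C. KD was derived from surface kinetics.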

[10] = target: T6, Peptide B (human PAR-2), C-terminal biotinylated (Human, not fully specified); experiment: SPR, peptide immobilized
T6 construct: also called Peptide B C-Term
T6 peptide: SLIGKVDGTSHVTGGGGGS-biotin
Procedure, shortened: as §4

[11] = target: T4, Peptide A (human PAR-2), N-terminal …; experiment: SPR, peptide immobilized
[12] = target: T7, Peptide B (human PAR-2), N-terminal biotinylated (Human); experiment: SPR, peptide immobilized
T7 construct: also called Peptide B N-Term
T7 peptide: Biotin-GGGGSSLIGKVDGTSHVTG

[13] = target: T3, Peptide F (monkey PAR-2), N-terminal …; experiment: SPR, peptide immobilized

T1 sequence (P55085 26-397 G138A limits assumed): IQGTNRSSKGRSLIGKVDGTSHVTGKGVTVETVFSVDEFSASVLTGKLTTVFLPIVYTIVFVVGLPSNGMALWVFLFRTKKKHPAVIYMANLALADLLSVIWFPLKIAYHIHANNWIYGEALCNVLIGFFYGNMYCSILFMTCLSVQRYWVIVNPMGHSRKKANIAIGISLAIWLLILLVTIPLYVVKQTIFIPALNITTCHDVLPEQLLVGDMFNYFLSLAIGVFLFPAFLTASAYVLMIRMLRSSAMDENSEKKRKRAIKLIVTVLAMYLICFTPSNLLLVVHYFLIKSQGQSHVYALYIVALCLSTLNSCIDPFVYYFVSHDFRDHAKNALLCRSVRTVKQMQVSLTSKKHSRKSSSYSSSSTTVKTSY

B1: H4H588N (antibody, human IgG4, V domains shown)
VH: EVQLLESGGGLVQPGGSLRLSCAASGFTFSSYAMTWVRQAPGKGLYWVSAISGGRGSAYYADSVKGRFTISRDNSKNTLYLQMNSLRAEDTAVYYCAKEGDSGYDLAYWGRGTLVTVSS
VL: DIQMTQSPSSLSASVGDRVTITCRARQGISNNLAWLQQKPGKAPKSLIYAASSLQSGIPSKFSGSGSGTYFTLTISSLQPEDFATYYCQQYKSSPLTFGGGTKVEIK
notes: also called H2M588N variable regions
Bmax (full length human PAR-2 [1]): 27500 MSD Unit
EC50 (full length human PAR-2 [1]): 5950 pM
Kd [2]: 4950 pM
T1/2 [2]: 25.1 min
Kd [3]: 10800 pM
T1/2 [3]: 20 min
IC50, NF-kB-luciferase, 20 nM Trypsin (full length human PAR-2 [4]): 16900 pM
EC50 [5]: 10 pM
EC50 [6]: 19 pM
EC50 [7]: 16 pM
EC50 [8]: 12 pM
Kd [9]: 517 pM
T1/2 [9]: 141 min
Kd [10]: 1030 pM
T1/2 [10]: 70 min
Kd [11]: 1050 pM
T1/2 [11]: 189 min
Kd [12]: 27.2 pM
T1/2 [12]: > 1160 min
Kd [13]: 1810 pM
T1/2 [13]: 94 min

B2: H4H583P (antibody, human IgG4, V domains shown)
VH: QVQLVESGGGVVQPGMSLRLSCTASGFTFRRYGMHWVRQAPGKGLEWVAVIWYDGSNKYYADSVKGRFTITRDNSKNTLYLQMNSLRAEDTAIYFCASEITIGDWFDPRGQGTLVTVSS
VL: AIQMTQSPSSLSASVGDRVTITCRASQGIRNDLGWFQQKPGKVPKLLIYAASTLHSGVPSRFSGSGFGTDFTLTISSLQPEDFATYYCLQDFNYPLTFGGGTKVEIK
notes: also called H1H583P variable regions
Bmax (full length human PAR-2 [1]): 13300 MSD Unit
EC50 (full length human PAR-2 [1]): 2120 pM
Kd [2]: 37100 pM
T1/2 [2]: 0.37 min
Kd [3]: 112000 pM
T1/2 [3]: 0.47 min
IC50, NF-kB-luciferase, 20 nM Trypsin (full length human PAR-2 [4]): 14000 pM
EC50 [5]: 8 pM
EC50 [6]: 15 pM
EC50 [7]: 18 pM
EC50 [8]: 13 pM
Kd [9]: 898 pM
T1/2 [9]: 34 min
binding result [10]: no binding
Kd [11]: 412 pM
T1/2 [11]: 46 min
binding result [12]: no binding
Kd [13]: 291 pM
T1/2 [13]: 73 min

B3: H4H584P (antibody, human IgG4, V domains shown)
VH: QVQLVESGGGVVQPGRSLRLSCVASGFTFSRYGMHWVRQAPGKGLEWVVVISYDGINKYYADSVKGRFTISRDNSKNTVYLQMNSLRAEDTAVYYCAKGDFWSGYFDYWGQGTLVTVSS
VL: DIVMTQTPLSSPVTLGQPASISCRSSQSLVHSDGNTYLSWLHQRPGQPPRLLIYKISNRFSGVPDRFSGSGAGTDFTLQISRVEAEDVGIYYCMQATQFPTFGGGTKVEIK
notes: also called H1H584P variable regions
Bmax (full length human PAR-2 [1]): 26000 MSD Unit
EC50 (full length human PAR-2 [1]): 1450 pM
Kd [2]: 22000 pM
T1/2 [2]: 0.73 min
Kd [3]: 93300 pM
T1/2 [3]: 0.23 min
IC50, NF-kB-luciferase, 20 nM Trypsin (full length human PAR-2 [4]): 5600 pM
EC50 [5]: 12 pM
EC50 [6]: 19 pM
EC50 [7]: 15 pM
EC50 [8]: 12 pM
Kd [9]: 688 pM
T1/2 [9]: 55 min
Kd [10]: 1660 pM
T1/2 [10]: 15 min
Kd [11]: 525 pM
T1/2 [11]: 43 min
Kd [12]: 3200 pM
T1/2 [12]: 30 min
Kd [13]: 565 pM
T1/2 [13]: 40 min

B5: H4H579P (antibody, human IgG4, V domains shown)
VH: B3 VH with V48L, V49I, A92G
VL: B3 VL with A96G
notes: also called H1H579P variable regions
Bmax (full length human PAR-2 [1]): 25000 MSD Unit
EC50 (full length human PAR-2 [1]): 1860 pM
Kd [2]: 15000 pM
T1/2 [2]: 4.1 min
Kd [3]: 49400 pM
T1/2 [3]: 2 min
IC50, NF-kB-luciferase, 20 nM Trypsin (full length human PAR-2 [4]): 4100 pM
EC50 [5]: 38 pM
EC50 [6]: 77 pM
EC50 [7]: 76 pM
EC50 [8]: 61 pM
Kd [9]: 143 pM
T1/2 [9]: 479 min
Kd [10]: 453 pM
T1/2 [10]: 96 min
Kd [11]: 1610 pM
T1/2 [11]: 46 min
Kd [12]: 5440 pM
T1/2 [12]: 55 min
Kd [13]: 796 pM
T1/2 [13]: 70 min

Results, then the binder that gave them:

Bmax (full length human PAR-2 [1]): 22500 MSD Unit
EC50 (full length human PAR-2 [1]): 1950 pM
Kd [2]: 8780 pM
T1/2 [2]: 3.7 min
Kd [3]: 46200 pM
T1/2 [3]: 2 min
IC50, NF-kB-luciferase, 20 nM Trypsin (full length human PAR-2 [4]): 8900 pM
EC50 [5]: 17 pM
EC50 [6]: 26 pM
EC50 [7]: 21 pM
EC50 [8]: 17 pM
Kd [9]: 151 pM
T1/2 [9]: 493 min
Kd [10]: 376 pM
T1/2 [10]: 123 min
Kd [11]: 1690 pM
T1/2 [11]: 48 min
Kd [12]: 5410 pM
T1/2 [12]: 63 min
Kd [13]: 899 pM
T1/2 [13]: 66 min
B4: H4H585P (antibody, human IgG4, V domains shown)
VH: B3 VH with V48L, V49I
VL: B3 VL with A96G
notes: also called H1H585P variable regions

Bmax (full length human PAR-2 [1]): 28200 MSD Unit
EC50 (full length human PAR-2 [1]): 652 pM
Kd [2]: 9440 pM
T1/2 [2]: 1.4 min
Kd [3]: 36600 pM
T1/2 [3]: 0.53 min
IC50, NF-kB-luciferase, 20 nM Trypsin (full length human PAR-2 [4]): 1100 pM
EC50 [5]: 12 pM
EC50 [6]: 20 pM
EC50 [7]: 28 pM
EC50 [8]: 20 pM
Kd [9]: 237 pM
T1/2 [9]: 134 min
Kd [10]: 346 pM
T1/2 [10]: 49 min
Kd [11]: 498 pM
T1/2 [11]: 41 min
Kd [12]: 2720 pM
T1/2 [12]: 38 min
Kd [13]: 272 pM
T1/2 [13]: 78 min
B6: H4H581P (antibody, human IgG4, V domains shown)
VH: B3 VH with M34I, V49I
VL: B3 VL
notes: also called mAb H4H581P; H1H581P variable regions
